Reference: patent publication US20160046957A1

Target: human coagulation Factor X (human) (UniProt P00742)
Assay: cell-based or functional assay

UniProt P00742, sequence (P00742 41-488): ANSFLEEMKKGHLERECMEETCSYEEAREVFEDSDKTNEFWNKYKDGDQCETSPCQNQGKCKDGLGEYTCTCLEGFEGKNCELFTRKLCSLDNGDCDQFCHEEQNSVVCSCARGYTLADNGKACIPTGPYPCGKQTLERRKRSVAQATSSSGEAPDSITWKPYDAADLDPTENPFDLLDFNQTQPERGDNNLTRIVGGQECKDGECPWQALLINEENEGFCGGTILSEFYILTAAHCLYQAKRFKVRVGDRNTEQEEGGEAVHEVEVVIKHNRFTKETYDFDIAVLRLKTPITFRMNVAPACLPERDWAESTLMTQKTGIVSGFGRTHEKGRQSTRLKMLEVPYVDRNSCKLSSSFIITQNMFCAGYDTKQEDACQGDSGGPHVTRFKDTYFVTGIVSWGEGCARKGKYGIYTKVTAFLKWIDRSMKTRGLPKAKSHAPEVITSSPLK

estimated furin concentration in the cell culture medium resulting in equal or higher 90% fully processed FX of total FX (Emax model on Western blot densitometry and furin activity assay): > 57 U/mL
Substance: human furin (from UniProt P09958 108-794) (enzyme)
